Test results published in the supplement of paper PMC10567573.

B1: KRT13 (parent)
chain: YGGGLGGGFGGGFAGGFVDFGACD
B2: RSAD1 (parent)
chain: YCNFNKYIPRRLEEAAMQKCLVTE

Variants of: B1
Assay: protein stability index of a GFP-peptide fusion (GPS, HEK-293T) (PSI 1-6); higher = more stable
Details: c terminus: a fixed tail appended
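Further: lentivirally expressed fusions sorted by FACS into six bins by GFP to DsRed ratio, PSI derived from sequencing read proportions per bin multiplied by bin number.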

Protein stability index of substitutions, site by site:
G3: F 1.88; N 2.2; H 1.9; E 2.33; I 2.29; W 1.18; P 2.03; V 2.48; D 1.5; M 2.51; C 1.87; A 1.77; Y 1.21; Q 2.5; T 2.3; R 2.27; S 1.84; L 1.58
L5: I 2.27; W 3.09; P 1.95; T 2.22; Q 2.02; H 1.8; G 1.87; E 2.51; N 1.84; V 2.73; M 1.93; Y 2.79; S 1.36; C 1; K 1.51; A 1.64; R 2.62; D 2.04; F 1.38
G7: A 2.41
G4: M 1.21; V 1.55; Y 2.38; E 1.95; N 1.8; P 2.03; H 1.6; F 1.7; Q 1.68; S 2.42; D 2.52; L 2.14; A 1.89; T 1.87; W 2.33; R 2.02; I 1.93; K 2.84
G2: E 2.66; I 3.26; W 2.56; F 2.91; N 2.23; D 2.67; Y 1.63; L 3.13; R 2.33; K 1.86; S 1.54; V 3.25
G6: H 1.79; L 2.86; P 3.58; S 1.4; W 3.1; Q 2.38; M 1.81; C 2.27; N 1.65; T 2.19; V 2.12; E 2.26; D 1.89; R 1.54; Y 1; I 3.11; F 1.68; K 1.67; A 2.4
Y1: L 1.92; T 2.73; W 2.08; R 2.76; P 2.75; D 3.61; N 3.65; H 2.9; V 3.53; E 3.3; K 2.68; Q 3.12; C 1.52; F 1.16; S 3.23; G 3.48; M 2.43; I 2.54; A 2.87

Variants of: B2
Assay: as above
Details: c terminus: a fixed tail appended

Protein stability index, by site and new letter:
L21: P 2.17; V 2.01; Y 3.19; R 1.51; S 1.42; T 2.04; Q 3.19
T23: I 2.22; L 1.91; R 1.78; W 2.85; M 2.17; D 1.78; F 3; Q 3.64; P 3.87; S 1.93; N 2.85; A 1.9; V 3.13; Y 2.61; E 1.94; H 2.92; K 2.27
E24: N 2.17; G 2.29; S 1.64; K 2.46; D 2.4; Q 2.38; P 2.28; H 2.08; L 3.31; R 2.32; V 1.9; W 2.13; M 2.84; I 2.83; F 2.77; Y 2.16; T 1.44; C 3.44; A 3.14
V22: K 2.57; H 2.78; N 2.35; I 2.77; G 2.02; T 3.32; M 2.58; S 2.38; Q 2.5; C 2.58; D 1.76; A 2.25; L 1.3; P 1.97; W 2.23; E 2.41; Y 1.41; R 3.88
